Sequences and labels used below:
B1: hybrid antibody VL STE90-C11 / VH YU536-D04 (antibody, V domains shown)
VH: QVQLVQSGGGLVQPGGSLRLSCAASGLTVSSNYMSWVRQAPGKGLEWVSVIYSGGSTYYADSVKGRFIISRDNSKNTLYLQMNSLRAEDTAVYYCARDLVVMGLDVWGKGTLVTVSS
VL: DIVMTQSPSFLSASVGDRVTITCRASQGISSYLAWYQQKPGKAPKLLIYAASTLQSGVPSRFSGSGSGTEFTLTISSLQPEDFATYYCQQLNSYPPFTFGPGTKVDIK
B2: hybrid antibody VL YU537-H11 / VH YU536-D04 (antibody, V domains shown)
VH: B1 VH
VL: QSVLTQPPSVSAAPGQKVTISCSGSSSNIGNNYVSWYQQLPGTAPKLLIYDTNKRPSGIPDRFSGSKSGTSATLGITGLQTGDEADYYCATWDSSLSVGVFGGGTKLTVL
B3: hybrid antibody VL STE90-C11 / VH YU537-H11 (antibody, V domains shown)
VH: EVQLLESGGGLIQPGGSLRLSCAASGLTVSSNYMSWVRQAPGKGLEWVSVIYSGGSTYYADSVKGRFTISRDNSKNALYLQMNSLRAEDTAVYYCARGESGSPYGMDVWGQGTLVTVSS
VL: B1 VL
B4: hybrid antibody VL YU536-D04 / VH STE90-C11 (antibody, V domains shown)
VH: QVQLVESGGGLVQPGGSLRLSCAASGLTVSSNYMSWVRQAPGKGLEWVSVIYSGGSTYYADSVKGRFTISRDDSKNTLYLQMNSLRAEDTAVYYCARDVADAFDIWGQGTMVTVSS
VL: DIQLTQSPSSLSASVGDRVTITCRASQGISSYLAWYQQKPGKAPKLLIYAASTLQSGVPSRFSGSGSGTDFTLTISSLQPEDFATYYCQQLNSYPITFGQGTKLEIK
B5: hybrid antibody VL YU536-D04 / VH YU537-H11 (antibody, V domains shown)
VH: B3 VH
VL: B4 VL
B6: hybrid antibody VL YU537-H11 / VH STE90-C11 (antibody, V domains shown)
VH: B4 VH
VL: B2 VL

For one assay, the target named is receptor binding domain (RBD) of SARS-CoV-2 glycoprotein S, wild-type (SARS-CoV-2, UniProt P0DTC2 319-591). Nature of the assay: binding study, chain shuffling (example 19).
For the molecule B1, the binding result is “binds”.

Take B2: the binding result was “binds”.

Turning to B3, the binding result is listed as “binds”.

For the molecule B4, the binding result is “binds”.

Regarding B5, the binding result is “binds”.

With B6, the binding result is given as “binds”.

The target in a further assay is RBD mutant N501Y (SARS-CoV-2, UniProt P0DTC2 319-591). In words: binding study, chain shuffling.
On to B1, for which the binding result is “binds”.

For the molecule B2, the binding result was “binds”.

Regarding B3, the binding result is recorded as “binds”.

Turning to B4, the binding result is “binds”.

For the molecule B5, the binding result is recorded as “binds”.

For B6, the binding result is “binds”.

Another assay deals with T1, RBD mutant K417N (SARS-CoV-2, UniProt P0DTC2 319-591). In words: binding study, chain shuffling.
Regarding B2, the binding result is reported as “binds”.

As for B3, the binding result was “binds”.

In the case of B4, the binding result is “binds”.

On to B5, for which the binding result was “binds”.

B6: the binding result is reported as “binds”.

For another assay, the target named is T1, RBD mutant K417N. Nature of the assay: binding study, FIG. 46.
B1: the binding result is “binds”.

The values are drawn from US20240059758A1 (CORAT THERAPEUTICS, published 2024).
